Source: patent US5814603A, “Compounds with PTH activity” (Affymax Technologies N.V., priority 1993, dated 1998)
Ends that are not written are not given here.

What was measured:
[1] = target: T1, full length PTH-R (Didelphis virginiana, UniProt P25107); details: native opossom kidney cells; Juppner et al. (1991); cited from earlier work
T1 construct: host or cells: native opossum kidney cells

[2] = target: T2, PTH receptor (Rattus norvegicus, UniProt P25961); experiment: PTH analog activity assay: intracellular cAMP concentration in UMR106 cells; format: cell-based; details: rat osteosarcoma cell line UMR106, cAMP by scintillation proximity assay, 1 mM IBMX, 5 minutes at room temperature
T2 construct: host or cells: UMR106 rat osteosarcoma cells
T2 sequence (P25961 27-591): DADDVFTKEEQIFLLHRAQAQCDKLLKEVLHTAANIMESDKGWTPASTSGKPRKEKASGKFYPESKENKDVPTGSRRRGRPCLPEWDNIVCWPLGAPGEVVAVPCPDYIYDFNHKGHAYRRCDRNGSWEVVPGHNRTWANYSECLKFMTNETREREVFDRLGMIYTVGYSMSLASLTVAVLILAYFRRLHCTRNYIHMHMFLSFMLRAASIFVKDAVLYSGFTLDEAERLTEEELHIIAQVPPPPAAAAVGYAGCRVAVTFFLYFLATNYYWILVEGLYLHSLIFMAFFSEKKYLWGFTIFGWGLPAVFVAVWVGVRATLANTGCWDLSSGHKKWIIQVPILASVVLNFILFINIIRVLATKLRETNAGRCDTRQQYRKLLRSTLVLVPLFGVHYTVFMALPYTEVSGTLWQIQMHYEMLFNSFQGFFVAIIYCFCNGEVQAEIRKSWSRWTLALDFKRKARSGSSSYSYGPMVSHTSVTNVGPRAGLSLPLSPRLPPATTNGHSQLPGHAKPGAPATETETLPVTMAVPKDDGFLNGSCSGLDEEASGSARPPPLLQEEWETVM
Procedure: PTH concentrations were determined by OD280 using an extinction coefficient of 6600 for the recombinant peptide and 5500 for the synthetic peptide. The rat osteosarcoma cell line UMR106 (ATCC CRL 1661) was used for in vitro testing of the peptide's ability to activate the PTH receptor. Activation of the PTH receptor leads to an intracellular rise in cAMP concentration.
The UMR106 cells were plated at 1.2×10^5 per well in a 48 well dish. The media (DMEM with fetal calf serum) was removed, and 1 mL of fresh media was applied. PTH (recombinant or synthetic) at various concentrations and 3-isobutyl-1-methyl xanthine (IBMX) at 1 mM final concentration were then added to each well of the plate, which was then incubated for 5 minutes at room temperature. The media was then removed and the cells quickly washed with PBS. The cells were then extracted three times with 1 mL of absolute ethanol. The three extractions were combined and the ethanol removed by evaporation in a "speed vac" centrifuge. The extract was then redissolved in 0.5 mL of buffer (0.05M NaAcetate, pH=5.8, and 0.01% azide). The cAMP concentration was determined by scintillation proximity assay using a kit available from Amersham.

[3] = Isoelectric focusing (IEF) of the purified peptide; format: physicochemical; details: HPLC-purified peptide after CNBr cleavage
Procedure: The precipitated PTH polymer was then dissolved in 70% formic acid, and a 500-fold (100 to 1000-fold excess can be used) molar excess of CNBr was added. […] After CNBr cleavage, the peptides were lyophilized and resuspended in distilled water. The peptide was purified resuspended in Buffer A (0.1% TFA) and further purified by HPLC using a VYDAC C-18 Hamilton semi-preparative column. Approximately 30 mg of peptide was injected onto the column. The peptide was then eluted with a gradient of 20-40% acetonitrile/0.1% TFA over 40 minutes. The major peak, eluting at approximately 15 minutes, was collected and lyophilized to dryness. Analysis of this peptide by SDS-PAGE and IEF indicated a single species of approximately 4000 daltons with an isoelectric point of approximately 8.7.

T1 sequence (P25107 27-585): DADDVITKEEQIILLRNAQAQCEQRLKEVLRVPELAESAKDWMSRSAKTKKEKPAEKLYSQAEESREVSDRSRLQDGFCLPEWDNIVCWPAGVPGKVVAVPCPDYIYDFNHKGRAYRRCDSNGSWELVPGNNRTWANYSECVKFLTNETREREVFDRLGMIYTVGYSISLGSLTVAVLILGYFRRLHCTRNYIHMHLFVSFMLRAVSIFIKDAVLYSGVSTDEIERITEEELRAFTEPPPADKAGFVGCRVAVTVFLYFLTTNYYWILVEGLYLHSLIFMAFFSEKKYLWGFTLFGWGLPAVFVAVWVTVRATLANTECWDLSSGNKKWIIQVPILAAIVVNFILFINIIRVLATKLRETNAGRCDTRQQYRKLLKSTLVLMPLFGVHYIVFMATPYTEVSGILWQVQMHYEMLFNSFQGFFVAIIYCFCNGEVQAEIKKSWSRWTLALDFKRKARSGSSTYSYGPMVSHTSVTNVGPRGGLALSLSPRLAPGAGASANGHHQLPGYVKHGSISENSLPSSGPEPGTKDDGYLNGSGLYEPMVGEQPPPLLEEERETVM

For “PTH (1-34): PTH ligand bound by the native full length PTH receptor, per Juppner et al. 1991”, the Kd [1] is given as about 500 pM.

For “recombinant PTH analog: 35 amino acid Ho/Hol PTH analog (SEQ ID NO:4/5) from CNBr cleavage of 8-mer fusion protein expressed from pBAD/PTH/OC in E. coli (SVSEIQLLHNLGKHLNSLERVEWLRKKLQDVHNYX; X: randomised place (mixture); also: X35: homoserine or homoserine lactone (mixture))”, the “activity relative to synthetic human PTH (more active)” value [2] was 2-to-10 fold and the isoelectric point [3] was “approximately 8.7”.
